Article PMC6311707

Molecular target: NtermRGS2-GFP-CIBN (R2helix-CIBN component of opto-RGS2, GFP-tagged)
Test: light-induced membrane translocation

τoff (time constant of dark reversion from the membrane): 396 s | τon (time constant of light-induced membrane translocation): 19.7 s
Substance: CRY2-mCherry-(GGGGS)3-RGS2box (CRY2-R2box component of opto-RGS2)
